Reference: patent US20210147536A1 (MAB VENTURE BIOPHARM, published 2021)

Columns and labels:
[1] = target: T1, human LAG-3 on the cell surface (human, UniProt P18627 23-525); assay: flow cytometry, soluble scFv supernatant on activated human CD4+ T cells, anti-His-PE
T1 construct: whole, on cells; also called cells expressing the human LAG-3
T1 sequence (looked up): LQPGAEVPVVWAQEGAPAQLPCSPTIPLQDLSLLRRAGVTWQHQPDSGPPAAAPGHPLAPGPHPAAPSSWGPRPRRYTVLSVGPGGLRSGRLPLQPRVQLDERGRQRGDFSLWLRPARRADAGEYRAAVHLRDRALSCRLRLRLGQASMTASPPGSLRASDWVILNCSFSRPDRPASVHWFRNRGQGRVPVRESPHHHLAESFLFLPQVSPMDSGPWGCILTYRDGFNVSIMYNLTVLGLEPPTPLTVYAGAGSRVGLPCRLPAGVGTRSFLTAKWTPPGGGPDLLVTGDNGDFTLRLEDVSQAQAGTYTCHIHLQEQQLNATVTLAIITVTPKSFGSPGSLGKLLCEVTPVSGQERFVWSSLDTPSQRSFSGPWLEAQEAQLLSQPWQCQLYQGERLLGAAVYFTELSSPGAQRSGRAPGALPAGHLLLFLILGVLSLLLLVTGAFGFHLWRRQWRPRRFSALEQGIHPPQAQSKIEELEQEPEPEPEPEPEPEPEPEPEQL

[2] = target: T2, human LAG-3-6*His tag recombinant fusion protein (human, UniProt P18627 23-450, biotin-labelled in panning and in Example 9); assay: ELISA, human LAG-3-6*His coated at 1 µg/ml, IgG4 titrated, anti-hIgG HRP
T2 construct: Bought protein; also called hLAG-3-6*his tag recombinant protein; human LAG-3-his tag recombinant fusion protein
T2 sequence: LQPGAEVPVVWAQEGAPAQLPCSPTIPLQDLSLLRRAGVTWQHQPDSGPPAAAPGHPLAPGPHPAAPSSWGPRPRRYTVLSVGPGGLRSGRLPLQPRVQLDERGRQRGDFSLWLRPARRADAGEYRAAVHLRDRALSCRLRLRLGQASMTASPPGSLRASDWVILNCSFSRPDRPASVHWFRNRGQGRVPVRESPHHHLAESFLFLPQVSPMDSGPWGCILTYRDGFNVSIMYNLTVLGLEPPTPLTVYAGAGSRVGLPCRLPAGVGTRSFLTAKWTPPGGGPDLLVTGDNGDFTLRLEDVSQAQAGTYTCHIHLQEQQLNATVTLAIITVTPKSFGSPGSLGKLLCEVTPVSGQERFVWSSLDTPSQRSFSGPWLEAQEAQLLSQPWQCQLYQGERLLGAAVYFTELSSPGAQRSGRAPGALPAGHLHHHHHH

B1: scFv single chain antibody 11507 (scFv)
scFv: QVQLQESGPGLVKPSETLSLTCTVSGYSISSGYYWGWIRQPPGKGLEWIGSIYHSGSTYYNPSLKSRVTISVDTSKNQFSLKLSSVTAADTAVYYCARDLQDWFDPWGQGTLVTVSSGGGGSGGGGSGGGGSGGGGASLAVLTHAPSASGTPGQRVTISCSGSKSNIGSNSVNWYQHLPGTAPKLLIHTNDQRPSGVPDRFAGSKSGTSASLTISGLRPEDEADYYCATWDDSMSGPVFGGGTELTVL
notes: From phagemid pCLS1.0, which adds a C-terminal Myc-His tag
**Q.** Does B1 bind [1]?
**A.** binds

B2: scFv single chain antibody 11449 (scFv)
scFv: QVQLVQSGAEVKKPGASVKVSCKASGYTFTSYGISWVRQAPGQGLEWMGWISAYNGNTNYAQKLQGRVTMTTDTSTSTAYMELRSLRSDDTAVYYCARDEGANWGDAFDIWGQGTMVTVSSGGGGSGGGGSGGGGSGGGGASQLVLTQSPSASGTPGQRVTISCSGSSSNIGNNAVNWYQQLPGTAPKILIYSNNQRPSGVPDRFSGSKSGASASLAISGLQSEDESDYYCAAWDDSLNAVVFSGGTELTVL
notes: as for B1
**Q.** Does B2 bind [1]?
**A.** binds

B3: scFv single chain antibody 11487 (scFv)
scFv: QVQLVESGGGLVQPGRSLRLSCVASGFTFDDHAMHWVRQTPEKGLEWVSGISWNGGDIRYADSVKGRFIISRDNAKNSLHLQMNSLRGEDTAVYYCARDGGYSVLRAFDIWGQGTTVTVSSGGGGSGGGGSGGGGSGGGGASQSVLTQPPSVSGAPGQRVTISCTGSSSNIGAGYDVHWYQQLPGTAPKLLIYGNSNRPSGVPDRFSGSKSGTSASLAITGLQAEDEADYYCQSYDSSLSGWVFGGGTQLIIL
notes: as for B1
**Q.** Does B3 bind [1]?
**A.** binds

B4: scFv single chain antibody 11465 (scFv)
scFv: QVQLVQSGAEVKKPGSSVKVSCKTSGGTFSNYAINWVRQAPGQGLEWMGVIIPMFGPANYVQKFQGRVTITADETTSTAYMELSSLRSEDTAIYYCARDLAPAGFYGMDVWGQGTTVTVSSGGGGSGGGGSGGGGSGGGGASDIVLTQSPSSVSASVGDRVTITCRASQGISNWLAWYQQKPGKAPKLLIYAASSLQSGVPSRFSGSRSGTDFTLTISSLQPEDFATYYCQQARNFPFTFGQGTRLEIK
notes: as for B1
**Q.** Does B4 bind [1]?
**A.** binds

B5: scFv single chain antibody 11455 (scFv)
scFv: EVHLVESGGGVVQPGRSLRLSCAASGFTFSNYAMHWVRQAPGKGLEWVAVISYDGNNQYYADSVKGRFTISRDNSKNTLYLQMNSLRAEDTAVFYCARSIGFLESDAFDIWGQGTTVTVSSGGGGSGGGGSGGGGSGGGGASEIVLMQSPGTLSLSPGERATLSCRASQSFSDGSLAWYQQKPGQPPRLVIYDASKRATGIPDRFSGSRSGTEFTLTISSLQSEDFAVYSCQQYYNWPPTFGQGTRLEIK
notes: as for B1
**Q.** Does B5 bind [1]?
**A.** binds

B6: scFv single chain antibody 11506 (scFv)
scFv: QLQLQESGPGLVKSSQTLSLTCSVSGDSISSGKYYWTWIRQPAGKGLEWLGRIHSSGFAQYNPSLKGRLTISVDTRKNEFSLKMTSVTAADTAVYYCARGGWNDPFDSWGQGTLVTVSSGGGGSGGGGSGGGGSGGGGASDIQMTQSPDSLAVSLGERATINCKSSQSVLYSSNNKNYLAWYQQKPGQPPKLLIYWASTRESGVPDRFSVSGSGTDFTLTISSLHAEDVAVYYCQQYYSTPITFGPGTKLEIK
notes: as for B1
**Q.** Does B6 bind [1]?
**A.** binds

B7: scFv single chain antibody 11458 (scFv)
scFv: RVRLQESGPGLVKPSETLSLTCTVSGGSISSSSYYWGWIRQPPGKGLEWIGSIYYSGSTYYNPSLKSRVTISVDTSKNQFSLKLSSVTAADTAVYYCAREYSGYDGAYVGYWGQGTLVTVSSGGGGSGGGGSGGGGSGGGGASQSVLTQPPSVSGAPGQRVTISCTGSNSNIRAGYDVHWYQQLPGTVPKLLIYGNSNRPSGVPDRFSGSKSGTSASLAISGLQSEDEGNYFCATWDDSLWGWVFGAGTELTVL
notes: as for B1
**Q.** Does B7 bind [1]?
**A.** binds

B8: scFv single chain antibody 11452 (scFv)
scFv: EVQLLESGAEVKKPGASVKVSCKASGYTFTSYGISWVRQAPGQGLEWMGWISAYNGNTNYAQKLQGRVTMTTDTSTSTAYMELRSLRSDDTAVYYCARDGWWELLRPDDAFDIWGQGTTVTVSSGGGGSGGGGSGGGGSGGGGASQLVLTQSPSVSVSPGQTASITCSGDKLGDKYAYWYQQKPGQAPVLVIYYDSDRPSGIPERFSGSNSGNTATLTISRVEAGDEADYYCQVWDSSSDQVVFGGGTQLTVL
notes: as for B1
**Q.** Does B8 bind [1]?
**A.** binds

B9: IgG4 monoclonal antibody 11487 (antibody, V domains shown)
VH: QVQLVESGGGLVQPGRSLRLSCVASGFTFDDHAMHWVRQTPEKGLEWVSGISWNGGDIRYADSVKGRFIISRDNAKNSLHLQMNSLRGEDTAVYYCARDGGYSVLRAFDIWGQGTTVTVSS
VL: QSVLTQPPSVSGAPGQRVTISCTGSSSNIGAGYDVHWYQQLPGTAPKLLIYGNSNRPSGVPDRFSGSKSGTSASLAITGLQAEDEADYYCQSYDSSLSGWVFGGGTQLIILG
notes: IgG4, lambda
**Q.** Which EC50 [2] does the source give for B9 here?
**A.** 3.35 mg/L

B10: scFv single chain antibody 11446 (scFv)
scFv: EVQLVESGGGVVQPGRSLRLSCAASGFTFSNYAMHWVRQAPGKGLEWVAVISYDGSDKYYADSVKGRFTISRDNSKNTLYLQMKSLRAEDTAVYYCARSIGFLESDAFDIWGQGTTVTVSSGGGGSGGGGSGGGGSGGGGASDIVLTQSPSSLSASVGDRVTITCQASHGISNFLNWYQQKPGKAPKLLIYDASTLETGVPSRFSGSGSGTDFRFTISSLQPEDIATYYCQQFDNLPITFGQGTRLEIK
notes: as for B1
**Q.** Does B10 bind [1]?
**A.** binds

B11: IgG4 monoclonal antibody 11454 (antibody, V domains shown)
VH: EVQLLQSGGGLVQPGGSLRLSCAASGFTFSSYEMNWVRQAPGKGLEWVSYISSSGSTIYYADSVKGRFTISRDNAKNSLYLQMNSLRAEDTAVYYCARVGLLDAFDIWGQGTMVTVSS
VL: QSVLTQPPSVSAAPGQKVTISCSGSSSNIGNNYVSWYQLIPEKAPRLLIYDDDKRPSGIPDRFSGSQSGTSATLGITGLQTGDEADYFCGTWDNSLSGAVFGGGTQLIILG
notes: IgG4, lambda
**Q.** B11 was tested. Which EC50 [2] did it give?
**A.** 85.8 mg/L

B12: IgG4 monoclonal antibody 11446 (antibody, V domains shown)
VH: EVQLVESGGGVVQPGRSLRLSCAASGFTFSNYAMHWVRQAPGKGLEWVAVISYDGSDKYYADSVKGRFTISRDNSKNTLYLQMKSLRAEDTAVYYCARSIGFLESDAFDIWGQGTTVTVSS
VL: DIVLTQSPSSLSASVGDRVTITCQASHGISNFLNWYQQKPGKAPKLLIYDASTLETGVPSRFSGSGSGTDFRFTISSLQPEDIATYYCQQFDNLPITFGQGTRLEIK
notes: IgG4, kappa
**Q.** B12 was tested. Which EC50 [2] did it give?
**A.** 85.6 mg/L

B13: IgG4 monoclonal antibody 11455 (antibody, V domains shown)
VH: EVHLVESGGGVVQPGRSLRLSCAASGFTFSNYAMHWVRQAPGKGLEWVAVISYDGNNQYYADSVKGRFTISRDNSKNTLYLQMNSLRAEDTAVFYCARSIGFLESDAFDIWGQGTTVTVSS
VL: EIVLMQSPGTLSLSPGERATLSCRASQSFSDGSLAWYQQKPGQPPRLVIYDASKRATGIPDRFSGSRSGTEFTLTISSLQSEDFAVYSCQQYYNWPPTFGQGTRLEIK
notes: IgG4, kappa
**Q.** How did the EC50 [2] turn out when B13 was run?
**A.** 83.1 mg/L

B14: IgG4 monoclonal antibody 11471 (antibody, V domains shown)
VH: RVRLQESGPGLVKPSQTLSLTCTVSGGSISSSNWWSWVRQPPGKGLEWIGEIYHSGSTNYNPSLKSRVTISVDKSKNQFSLKLSSVTAADTAVYYCARDRAIRDAFDIWGQGTTVTVSS
VL: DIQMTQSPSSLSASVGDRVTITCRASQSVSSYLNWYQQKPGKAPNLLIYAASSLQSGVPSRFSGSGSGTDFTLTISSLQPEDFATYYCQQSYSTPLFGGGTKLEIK
notes: IgG4, kappa
**Q.** Which EC50 [2] does the source give for B14 here?
**A.** 22.3 mg/L

B15: scFv single chain antibody 11454 (scFv)
scFv: EVQLLQSGGGLVQPGGSLRLSCAASGFTFSSYEMNWVRQAPGKGLEWVSYISSSGSTIYYADSVKGRFTISRDNAKNSLYLQMNSLRAEDTAVYYCARVGLLDAFDIWGQGTMVTVSSGGGGSGGGGSGGGGSGGGGASQSVLTQPPSVSAAPGQKVTISCSGSSSNIGNNYVSWYQLIPEKAPRLLIYDDDKRPSGIPDRFSGSQSGTSATLGITGLQTGDEADYFCGTWDNSLSGAVFGGGTQLIIL
notes: as for B1
**Q.** Does B15 bind [1]?
**A.** binds

B16: scFv single chain antibody 11451 (scFv)
scFv: QVQLQESGPGLVKPSETLSLTCTVSGGSISSGGYYWGWIRQPPGKGLEWIGSIYYSGRTYYNPSLKSRVTISVDTSRNQFSLKLSSLTAADTAVYYCARTGGGAYGFDYWGQGTLVTVSSGGGGSGGGGSGGGGSGGGGASQPVLTQPHSVSESPGKTVTISCTRSSGNIASNYVQWYQKRPGSPPTTVIYEDNQRPSGVPDRFSASIDSSSNSASLTISGLRTEDEADYYCQSYDTILGYVFGGGTQLTAL
notes: as for B1
**Q.** Does B16 bind [1]?
**A.** binds
